Measured values from the nanobody polyreactivity screen of Harvey et al. (2022).

Assay: yeast display, Sf9 membrane polyspecificity reagent, FACS + sequencing; frameworks hold sequencing errors
In short: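 Synthetic nanobody libraries on Saccharomyces cerevisiae BJ5465 were galactose-induced for 36–48 hours, stained 1 hour at 4 °C with 10% biotinylated, detergent-solubilized Sf9 membrane reagent and enriched on streptavidin microbeads. FACS then separated cells into low and high (top ~1%) gates by anti-HA (expression) and streptavidin (reagent binding) fluorescence. Genes were colony-PCR amplified, MiSeq 2 × 250 sequenced and CDR-length filtered. A clone's polyreactivity label is that of its gate of origin.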
In the case of “QVQLVESGGGLVQAGGSLRLSCAASGFIFAPNAMGWYRQAPGKERELVAAISHSGASTFYADSVKGRFTISRDNAKNTVYLQMNILKPEDTAVYYCAADLYIYYVWIRDYWGHGTQVTVSS”, the “polyreactivity (PSR sort gate)” value is reported as “low polyreactivity”.
In the case of “QVQLVESGGGLVQAGGSLRLSCAASGFIFAPNAMGWYRQAPGKERELVAAISHSGASTFYADSVKGRFTISRDYAKNTVYLQMNSLKPEDTAVYYCGAPPYYSYDYWRQGTQVTVSS”, the “polyreactivity (PSR sort gate)” value is reported as “low polyreactivity”.
In the case of “QVQLVESGGGLVQAGGSLRLSCAASGFIFARYAMGWYRQAPGKVRELVARITTGDSTYYADSVKGRFTISRDNAKNTVYLQMNSLKPEDTAVYYCAADDNVSVVGLYYWGQGTQVTVSS”, the “polyreactivity (PSR sort gate)” value is reported as “low polyreactivity”.
For “QVQLVESGGGLVQAGGSLRLSCAASGFIFASNAMGWYRQAPGKERELVAGITKSGGSTYYADSVKGRFTISRDNAKNTVYLQMNSLKPEDTAVYYCAKVSYARAKSSGFYYWGQGTQVTVSS”, the “polyreactivity (PSR sort gate)” value was “high polyreactivity”.
For “QVQLVESGGGLVQAGGSLRLSCAASGFIFASNAMGWYTQAPGKERELVASITIGDSTYYADSVKGRFTISRDNAKNTVYLQMNSLKPEDTAVYYCAAVKTVDVGYDYWGQGTQVTVSS”, the “polyreactivity (PSR sort gate)” value was “low polyreactivity”.
In the case of “QVQLVESGGGLVQAGGSLRLSCAASGFIFASYAMGWYRQAPGKERELVAAISSSGGRTYYADSVKGRFTISRDNAKNTVYLQMNSLKPEDTAVYYCAADWRVTYDYWGQGTQVTVSS”, the “polyreactivity (PSR sort gate)” value is reported as “high polyreactivity”.
With “QVQLVESGGGLVQAGGSLRLSCAASGFIFASYAMGWYRQAPGKERELVATITRNGGITYYADSVKGRFTISRDNAKNTVYLQMNSLKPEDTAVYYCAKRRSGKSNVSFYPYAYDYWGQGTQVTVSS” the “polyreactivity (PSR sort gate)” value was “low polyreactivity”.
For “QVQLVESGGGLVQAGGSLRLSCAASGFIFATNTMGWYRQAPGKERELVAASSTYYADSVKGRFTISRDNAKNTVYLQMNSLKPEDTAVYYCNADRDSYIGFDLSESDYWGQGTQVTVSS”, the “polyreactivity (PSR sort gate)” value was “low polyreactivity”.
With “QVQLVESGGGLVQAGGSLRLSCAASGFIFATYAMGWYRQAPGKERELVASINWSGGRTYYADSVKGRFTISRDNAKNTVYFQMNSLKPEDTEVYYCAARISTRYEYWGHGTQVTVSS” the “polyreactivity (PSR sort gate)” value was “high polyreactivity”.
In the case of “QVQLVESGGGLVQAGGSLRLSCAASGFIFATYNMGWYRQAPGKERELVAAITWRGGSTYYADSVKGRFTISRDNAKITVYLQMNSLKPEDTAVYYCAAQDVYSYRYVEDDYWGQGTQVTVSS”, the “polyreactivity (PSR sort gate)” value is reported as “low polyreactivity”.
For “QVQLVESGGGLVQAGGSLRLSCAASGFIFAWYAMGWYRQAPGKERELVAAITSSGTSTYYADSVKGRFTISRDNAKNTVYLQMNSLTPEDTAVYYCAAVTKRYLAYDYWGQGTQVTVSS”, the “polyreactivity (PSR sort gate)” value was “high polyreactivity”.
For “QVQLVESGGGLVQAGGSLRLSCAASGFIFAYYAMGWYRQAPGKERELVAAISSRGGTYYADSVKGRFTISRDNAKNTVYFQMNSLKPEDTAVYYCAAASYTWVSRGYEYWGQGTQVTVSS”, the “polyreactivity (PSR sort gate)” value was “high polyreactivity”.
With “QVQLVESGGGLVQAGGSLRLSCAASGFIFDDNAMGWYRQAPGKERELVAAITSGGGTTYYADSVKGRFTISRDTAKNTVYLQMNSLKPEDTAVYYCNAVPSQHDEFDYWGQGTQVTVSS” the “polyreactivity (PSR sort gate)” value was “low polyreactivity”.
For “QVQLVESGGGLVQAGGSLRLSCAASGFIFDKNAMGWYRQAPGKERELVATITSGGSTYYADSVKGRFTISRDNAKNTVYFQMNSLKPDETAVYYCAALDYGYRWYRYYYWGQGTQVTVSS”, the “polyreactivity (PSR sort gate)” value was “high polyreactivity”.
With “QVQLVESGGGLVQAGGSLRLSCAASGFIFDLYAMGWYRQAPGKERELVAVISYDGGSTYYADSVKGRFTISRDNAKNTVYLQMNSLNPEDTAVYYCNTYAGLVSPSDLYDYWGQGTQVTVSS” the “polyreactivity (PSR sort gate)” value was “low polyreactivity”.
For “QVQLVESGGGLVQAGGSLRLSCAASGFIFDQNAMGCYRQAPGKEREFVAAISSRGSRTYYADSVKGRFTISRDKAKNTVYLQMNSLKPEDTAVYDCAAGYWARLYDYDYWGQGTQVTVSS”, the “polyreactivity (PSR sort gate)” value was “high polyreactivity”.
With “QVQLVESGGGLVQAGGSLRLSCAASGFIFDRYAMGWYRQAPGKERELVAAIDTASSTNYADSVKGRFTISRDNAKNTVDLQMNSLKPEDTAVYYCNASGYYYVIYWKVSNYNYWGQGTQVTVSS” the “polyreactivity (PSR sort gate)” value was “low polyreactivity”.
With “QVQLVESGGGLVQAGGSLRLSCAASGFIFDRYDMGWYRQAPGKERELVAAISYSGGSTYYADSVKGRFSISRDNAKNTVYFQMNSLKPEDTAVYYCATRVGYFYYEYSYDYWGQGTQVTVSS” the “polyreactivity (PSR sort gate)” value was “low polyreactivity”.
With “QVQLVESGGGLVQAGGSLRLSCAASGFIFDSYAMGWNRQAPGKERELVAAIDKRGGRTYYADSVKGRFTISRDNGKNTVYLQMNSLKPEDTAVYYCAADDYTGYGYWGQGTQVTVSS” the “polyreactivity (PSR sort gate)” value was “high polyreactivity”.
In the case of “QVQLVESGGGLVQAGGSLRLSCAASGFIFDSYVMGWYRQAPGKEREMVAAISSGGASTYYADSVKGRFTISRDNAKNTVYLQMNSLKPEDTAVYYCAAEYLYQPWGVDYDYWGQGSQVTVSS”, the “polyreactivity (PSR sort gate)” value is reported as “high polyreactivity”.
In the case of “QVQLVESGGGLVQAGGSLRLSCAASGFIFDTYALGWYRQAPGKERELVAVMSSSGGRTYYADSVKGRFTISRDNAKNTVYLQMNSLKPEDNAVYYCAARWYSGYGRFDYWGQGTQVTVSS”, the “polyreactivity (PSR sort gate)” value is reported as “high polyreactivity”.
